Assay results published in US11572561B2, “Method and composition for inhibiting growth of bacterium” (priority 2020, dated 2023).
“Also recorded” adds a separate entry of the source.

Tests used:
[1] = system: total transcripts of P. aeruginosa; assay: Transcriptome profile comparison of AS1974-transformed and control strains (off-target effect); assay type: cell-based; conditions: AS1974-transformed vs control strains
[2] = system: resistance strains of P. aeruginosa (R3); assay: MIC measurement (microbroth dilution) of resistance strain overexpressing sRNA; assay type: cell-based; conditions: transformed R3 strain
Excerpt: Different classes of antibiotics including aminoglycoside, cephalosporin, beta-lactam, extended-spectrum penicillin beta-lactam, fluoroquinolone were used. Antibiotics susceptibility and resistance strains are highlighted. R3-AS1974, R3-AS2779 and R3-IGR2780 represent R3 strains transformed with the corresponding sRNA while R3-AS1974-Reverse represents R3 strains transformed the sRNA which sequence was reverse and complementary to AS1974 (negative control). R3-empty vector was used as vector control. The strain ATCC27853 was used for quality control.
To find out if the sRNAs directly play a role in the intrinsic drug resistance of bacteria, each of the sRNAs was overexpressed in the resistance strains of P. aeruginosa, and MIC measurements were performed. […]
The MICs of 11 antibiotics, including penicillin G, cefotaxime, chloramphenicol, tetracycline, erythromycin, lincomycin, ciprofloxacin (Sigma, St. Louis, Mo., USA), levofloxacin (Daiichi Sankyo, Tokyo, Japan), gatifloxacin (Bristol-Myers Squibb, Moreton, UK), moxifloxacin (Bayer Healthcare Pharmaceuticals, Berlin, Germany), and linezolid (Pfizer, NJ, USA), were determined using the microbroth dilution method, according to the Clinical and Laboratory Standards Institute (CLSI). […]

[3] = system: AS1974 target genes (mexD, chtA, prc, major facilitator superfamily, pilD, ndvB); assay: Real-time qPCR of AS1974 target genes in AS1974-overexpressing resistance strain; assay type: cell-based, P. aeruginosa; conditions: R3-AS1974 vs R3-EV (empty vector)
Procedure: One of the major functions of sRNAs is to suppress the target gene expression under particular conditions or in response to external stimuli. To find out the regulatory roles of AS1974 sRNAs in various drug resistance pathways, the inventors sequenced the transcriptomes of six strains, and they used newly developed program to correlate sRNA repertoires with transcriptomes. […] To validate the transcriptome result, real-time qPCR experiments were performed to measure and compare the transcript levels of these genes in both drug-susceptible and drug-resistant strains.
To further investigate if these drug-resistant genes were directly controlled by this sRNA, AS1974 was overexpressed in the resistance strain and their transcript levels were measured by qPCR. Empty vector was used as a negative control. […]
Six P. aeruginosa strains, S1, S2, S3, R1, R2, and R3, were grown at 37° C. overnight in nutrient broth with shaking at 250 rpm and harvested at stationary phase (OD600=1.5-1.7). […] Melting curves were determined by an auto-dissociation program. […] The results were expressed as the means of at least 3 independent experiments. Data are presented as mean±SD, and comparisons were analyzed using unpaired t test (two tailed: *p<0.05, **p<0.01, and ***p<0.001).

B1: AS1974: sRNA of P. aeruginosa, SEQ ID NO: 2, located at the antisense region of mexR (nucleic acid, listed as Pseudomonas aeruginosa)
chain: GAATGTTCTTAAATATCCTCAAGCGGTTGCGCGGCCAGGCACTGGTCGAGGAGATGCACCAGGGTGGCCTGTTCCACCGGGGTGAGCGGGGCAAACAACTCGTCATGCACGCGTGACATGATGGCCTC
total transcripts affected (off-target effect) [1]: less than 1% | resistance of the AS1974-overexpressed strain to chloramphenicol ([2]; chloramphenicol): still showed resistance | effect of sRNA overexpression on MIC / antibiotic susceptibility of the resistance strain ([2]; aminoglycoside, cephalosporin, meropenem, ertapenem, empty vector control): hypersusceptibility; also recorded: transformed the bacteria from resistant strains to drug-sensitive strains | target gene expression upon overexpression of sRNA [3]: downregulated
